Key:
[1] = molecular target: T1, MsbA (WT), purified, His tag cleaved (Escherichia coli K-12); experiment: cryo-EM structure
T1 chain: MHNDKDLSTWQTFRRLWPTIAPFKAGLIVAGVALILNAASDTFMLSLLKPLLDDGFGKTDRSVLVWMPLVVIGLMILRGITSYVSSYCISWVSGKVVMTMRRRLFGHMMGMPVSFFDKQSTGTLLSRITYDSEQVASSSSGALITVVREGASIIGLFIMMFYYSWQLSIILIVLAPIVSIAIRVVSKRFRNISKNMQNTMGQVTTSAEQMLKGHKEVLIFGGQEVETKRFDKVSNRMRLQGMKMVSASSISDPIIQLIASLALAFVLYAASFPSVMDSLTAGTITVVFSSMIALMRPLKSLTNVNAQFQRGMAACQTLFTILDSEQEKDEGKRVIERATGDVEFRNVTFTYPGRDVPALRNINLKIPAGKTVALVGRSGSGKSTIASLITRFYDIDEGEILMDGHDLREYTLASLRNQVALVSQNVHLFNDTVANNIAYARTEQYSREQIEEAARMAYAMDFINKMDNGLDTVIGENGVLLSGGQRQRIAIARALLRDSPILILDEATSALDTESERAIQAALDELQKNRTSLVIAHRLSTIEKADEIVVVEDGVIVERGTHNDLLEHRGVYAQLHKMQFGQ

[2] = molecular target: MsbA (WT), overexpressed in E. coli membranes and cells (Escherichia coli K-12, UniProt P60752); experiment: DEER
[3] = molecular target: Avi-tagged full-length MsbA, biotinylated, detergent-solubilized (Escherichia coli (K-12 sequence), UniProt P60752, biotin on the Avi-tag (enzymatic, BirA)); experiment: grating-coupled interferometry

Measured: binding result

B1: Nb_MsbA#1_A60C labeled with Gd-DOTA (VHH)
VHH: QMQLVESGGGLVQAGGSLRLSCAVSGSIFSIITLAWYRQAPGKPRENVATITRGSRTSYCDSVKGRFTISKDNAKSTVYLQMNKLKPEDTADYYCNAEGPAGYWGQGTPVTVS
binds: [1] | [2] | [3]

B2: Nb_MsbA#1_T68C labeled with Gd-DOTA (VHH)
VHH: QMQLVESGGGLVQAGGSLRLSCAVSGSIFSIITLAWYRQAPGKPRENVATITRGSRTSYADSVKGRFCISKDNAKSTVYLQMNKLKPEDTADYYCNAEGPAGYWGQGTPVTVS
binds: [1] | [2] | [3]
